Substrate in the data set: NC(=O)c1ccc[n+]([C@@H]2O[C@H](COP(=O)(O)OP(=O)(O)OC[C@H]3O[C@@H](n4cnc5c(N)ncnc54)[C@H](O)[C@@H]3O)[C@@H](O)[C@H]2O)c1
As to the kind of experiment: nick closing activity; fluorescein-labelled oligonucleotide ligated to biotinylated oligonucleotide on streptavidin plate. In kind it is biochemical, Wolbachia endosymbiont of Brugia malayi. The settings on record: nicked DNA duplex substrate, 20 mM Tris-HCl pH 8.0, 10 mM MgCl2, 10 mM (NH4)2SO4, 1.2 mM EDTA, 25 °C, 5 nM enzyme, NAD+ 0-30 µM, varied: cofactor.

B1: wBm-LigA (NAD+-dependent DNA ligase of Wolbachia endosymbiont of Brugia malayi) (Wolbachia endosymbiont strain TRS of Brugia malayi) (protein)
chain: MADLEKMIEEFTKLRDQISYHDVLYHQKSKPEIADAEYDKLKQKLVEMEGQLPGACVTQDGVGAAPDEKFSKIKHREPMLSLENAYDEQGVERFLSRIKRFLIEEEIEVFCEPKIDGLSFSAVYEDGRFVKAATRGDGFIGEDVTRNVATIKGFPRFLQDVQDRLEVRGEIYINNSDFLKLNKDNEFANPRNAAAGSLKQLDVSITANRPLKYFAYSLIGGKEKSQSEVLNRLESLGFCVNEHRSLTNNLSGMLEFYNKVYNCRYSLDYDIDGIVYKVNDLILQSRLGSTHKAPRSALAYKFSAVYAKTKLNKIFIQVGRTGVLTPVADLIPVNIGGVLVSRANLHNQDEIKRKDVREGDIVTIKRAGDVIPQIVRVDKGSRHADAPGFVFPEICPECGGKVQAEGAAIRCSEELTCKAQIIGKLSHFVSKGAFDIFGLGEKQIKFFYDLGLIKQIPDIFNLEERLNEFSLKEQPDWGERSIANLLNAIQNRRVITLDRFIFSLGIRFIGQVAAELLANYYVSYNNWYNSMIKLLSNDAEVGVGGVEKKIAKSFSDELVGIDGIGEKVAESLKSFFSKEHNIKMLKDLTDYLQILSVNSNSSNSVLNNKVIVFTGKLLTMSRGEAKVRAKALGAKVSSNLSAKIDYLVAGEKPGNKYKKAVELGVGILNEDQWYRMINSEVSE
notes: full length, 683 residues (ORF 2052 bp), pET28a(+), His6 tags at N and C terminus kept, expressed in E. coli Rosetta, Ni-NTA purified, ~75 kDa
Take B1: the Michaelis-Menten constant (Km) (commonly the substrate concentration at which the rate is half of its maximum) worked out at 4.8 µM.

For the origin of these results see publication PMC3397958, “Molecular Characterization of NAD^+-Dependent DNA Ligase from Wolbachia Endosymbiont of Lymphatic Filarial Parasite Brugia malayi” (PLoS ONE, 2012).
